Reference: patent publication US7582427B2, “Method of estimating drug metabolic activity by analyzing mutations in glucuronosyl transferase gene” (National University Corporation Shiga University of Medical …, priority 2002, dated 2009)
Where a chain is given by its changes, count along the chain named. Names and notes keep the numbering of the source.

T1: UGT1A1 (Homo sapiens, UniProt P22309, Y486D)
T1 sequence (P22309 26-533 Y486D): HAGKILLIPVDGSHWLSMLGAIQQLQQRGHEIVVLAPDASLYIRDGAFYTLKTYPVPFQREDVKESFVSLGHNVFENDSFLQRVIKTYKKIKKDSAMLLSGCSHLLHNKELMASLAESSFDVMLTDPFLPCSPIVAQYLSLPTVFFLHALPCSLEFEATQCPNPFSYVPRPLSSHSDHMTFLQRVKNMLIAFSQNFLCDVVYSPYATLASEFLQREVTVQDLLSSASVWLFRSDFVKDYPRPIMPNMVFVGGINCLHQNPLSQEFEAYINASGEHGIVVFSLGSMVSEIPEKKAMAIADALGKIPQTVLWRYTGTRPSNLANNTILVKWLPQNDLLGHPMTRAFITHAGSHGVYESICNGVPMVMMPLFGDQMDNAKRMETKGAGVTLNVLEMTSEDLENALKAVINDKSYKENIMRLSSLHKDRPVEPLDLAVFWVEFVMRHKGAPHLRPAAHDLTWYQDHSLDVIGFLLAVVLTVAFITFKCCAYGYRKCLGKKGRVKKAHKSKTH

B1: Y486D (homozygous): recombinant UGT1A1 molecule with Y486D mutation (exon 5), tyrosine replaced with aspartic acid at position 486 (protein, UniProt P22309 26-533, looked up, variant Y486D)
UDP-glucuronosyltransferase …: T1 sequence (P22309 26-533 Y486D)
modifications: homozygous
B2: P229Q (heterozygous): recombinant UGT1A1 molecule corresponding to heterozygous P229Q mutation (protein, UniProt P22309 26-533, looked up, variant P229Q)
UDP-glucuronosyltransferase …: T1 sequence (P22309 26-533 Y486D) with P204Q, D461Y
modifications: heterozygous
notes: recombinant UGT1A1 molecule corresponding to heterozygous P229Q mutation
B3: Y486D (heterozygous): recombinant UGT1A1 molecule corresponding to heterozygous Y486D mutation (protein, UniProt P22309 26-533, looked up, variant Y486D)
UDP-glucuronosyltransferase …: T1 sequence (P22309 26-533 Y486D)
modifications: heterozygous
notes: recombinant UGT1A1 molecule corresponding to heterozygous Y486D mutation

Legend:
[1] = test system: UGT1A1 molecule; test: UGT activity (glucuronidation) of recombinant UGT1A1 molecules, bilirubin as substrate; format: biochemical, human; settings: relative to normal
Excerpt: Further, it was shown that an abnormality of drug metabolism can be assayed for more effectively by combining this detection with detection of (a) mutation(s) in the regions of exons 1 to 4 other than the exon 5 region.

[2] = biological target: T1, UGT1A1; test: Enzyme kinetics of glucuronidation of 2-amino-5-nitro-4-trifluoromethylphenol by UGT1A1, normal versus Y486D; format: biochemical
Excerpt: 2-amino-5-nitro-4-trifluoromethylphenol is glucuronidated by UGT. The enzymatic reactions in glucuronidation by the enzymes of each of the isoforms UGT1A1 and UGT1A6 between their normal molecules and molecules with Y486D mutation were compared, respectively.

[3] = biological target: T1, UGT1A1; settings: fraction of normal enzyme activity, background report; cited from earlier work

maximum velocity relative to the maximum velocity of the wild type ([2]; substrate 2-amino-5-nitro-4-trifluoromethylphenol) | Molecule | UGT relative activity (glucronidation activity) [1] [%] | Km value relative to wild type ([2]; with respect to 2-amino-5-nitro-4-trifluoromethylphenol) | Km value relative to wild type ([2]; with respect to UDP-glucuronate) | enzyme activity relative to that of the normal enzyme [3]
about 12% | B1 | 8 | about half of that of the wild type | equal to that of the wild type | 1/13
 | B2 | 15 |  |  | 
 | B3 | 36 |  |  | 
